Assays:
[1] = biological target: GFP-hIL6 fusion protein (N-terminal 6x His-tag, mGFP, gs linker, human interleukin-6), purified (human); assay: flow cytometry of permeabilized IT cells treated with GFP-IL6
[2] = biological target: GFP-hIL6 fusion protein (N-terminal 6x His-tag, mGFP, gs linker, human interleukin-6), purified (human); assay: flow cytometry of permeabilized E. coli IT cells displaying the binder-mRFP-CBD on inclusion bodies, treated with GFP-IL6; GFP channel
[3] = biological target: sfGFP; assay: flow cytometry of permeabilized IT cells, treated with sfGFP; GFP channel [panel sfGFP]
[4] = biological target: GFP-hIL6 fusion protein (N-terminal 6x His-tag, mGFP, gs linker, human interleukin-6), purified (human); assay: flow cytometry of permeabilized IT cells, treated with mGFP-IL6; GFP channel [panel IL-6]

GFP fluorescence [1] | GFP fluorescence value [2] | Substance | GFP fluorescence value [3] | GFP fluorescence value [4]
10 | 17 | InVLR5c-mRFP-CBD fusion protein (In-VLR5c repebody fused to mRFP and family II CBD, displayed on inclusion bodies in permeabilized E. coli IT cells) (designed binder) | – | –
– | – | negative control (f) | 15.2 | 26.2
